Source: paper PMC10996701

Molecular target: yeast RPA (yRPA, ScRPA) (Saccharomyces cerevisiae, UniProt P22336;P26754;P26755 1-621;1-273;1-122)
Assay: DEER

yeast RPA (yRPA, ScRPA), sequence (P22336 whole entry, chain 1 of 3): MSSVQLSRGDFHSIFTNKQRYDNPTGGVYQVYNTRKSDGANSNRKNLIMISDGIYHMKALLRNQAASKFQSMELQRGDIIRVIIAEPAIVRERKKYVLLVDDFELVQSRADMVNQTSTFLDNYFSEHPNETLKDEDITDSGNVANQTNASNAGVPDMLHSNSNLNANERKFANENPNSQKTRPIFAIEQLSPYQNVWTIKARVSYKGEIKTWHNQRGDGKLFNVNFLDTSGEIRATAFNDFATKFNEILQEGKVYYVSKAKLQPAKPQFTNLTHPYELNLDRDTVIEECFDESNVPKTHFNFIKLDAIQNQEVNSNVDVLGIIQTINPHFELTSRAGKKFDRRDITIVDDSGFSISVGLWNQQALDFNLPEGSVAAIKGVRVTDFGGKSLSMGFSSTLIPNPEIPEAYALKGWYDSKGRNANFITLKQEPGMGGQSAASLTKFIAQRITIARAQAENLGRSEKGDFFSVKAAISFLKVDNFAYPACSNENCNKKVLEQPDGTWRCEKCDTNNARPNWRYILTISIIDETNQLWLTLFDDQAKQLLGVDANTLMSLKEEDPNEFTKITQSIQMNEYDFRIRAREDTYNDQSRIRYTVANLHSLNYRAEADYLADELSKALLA
yeast RPA (yRPA, ScRPA), sequence (P26754 whole entry, chain 2 of 3): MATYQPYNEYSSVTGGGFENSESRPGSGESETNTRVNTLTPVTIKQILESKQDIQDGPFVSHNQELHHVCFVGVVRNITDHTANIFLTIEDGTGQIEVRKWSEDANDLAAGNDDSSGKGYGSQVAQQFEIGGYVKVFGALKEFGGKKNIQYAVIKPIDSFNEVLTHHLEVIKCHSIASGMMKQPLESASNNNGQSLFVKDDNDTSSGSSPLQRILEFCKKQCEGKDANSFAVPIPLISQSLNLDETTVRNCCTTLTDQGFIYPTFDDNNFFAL
yeast RPA (yRPA, ScRPA), sequence (P26755 whole entry, chain 3 of 3): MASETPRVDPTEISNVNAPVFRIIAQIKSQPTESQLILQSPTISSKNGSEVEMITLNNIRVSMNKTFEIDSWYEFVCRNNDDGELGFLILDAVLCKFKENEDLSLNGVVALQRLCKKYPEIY

B1: (dT)22 DEER (ssDNA)
DNA: UTTTTTTTTTTTTTTTTTTTTTTUT
modifications: M = 2'-aminouridine spin-labelled with isoindoline nitroxide, at the two U positions (1 and 24)
Question: Does B1 bind?
Answer: binds
